Experimental data: the Immune Epitope Database (IEDB)

What was measured:
HLA-A*02:02 = experiment: IEDB peptide-MHC binding, purified MHC/competitive/radioactivity; filed as Kd, often an IC50 or EC50 that approximates it; ≥ and ≤ were set here for values at or beyond the usual limits of such assays
HLA-A*02:06 = experiment: as above
HLA-A*02:03 = experiment: as above
HLA-B*51:01 = experiment: as above; conditions: source organism: Dengue virus 3 Martinique/1243/1999
HLA-A*02:01 [1] = experiment: IEDB peptide-MHC binding, purified MHC/direct/fluorescence; filed as Kd, often an IC50 or EC50 that approximates it; ≥ and ≤ were set here for values at or beyond the usual limits of such assays
HLA-A*69:01 = experiment: as above
HLA-A*03:01 = experiment: as above
HLA-A*02:01 [2] = experiment: IEDB peptide-MHC binding, purified MHC/competitive/fluorescence; filed as Kd, often an IC50 or EC50 that approximates it; ≥ and ≤ were set here for values at or beyond the usual limits of such assays; conditions: source organism: Vaccinia virus WR
HLA-A*01:01 = experiment: IEDB peptide-MHC binding, purified MHC/direct/fluorescence; filed as Kd, often an IC50 or EC50 that approximates it; ≥ and ≤ were set here for values at or beyond the usual limits of such assays; conditions: source organism: Amur virus
HLA-B*07:02 = experiment: as above
HLA-B*58:01 = experiment: as above
HLA-B*15:01 = experiment: as above; conditions: source organism: Pseudomonas aeruginosa
HLA-A*11:01 = experiment: as above; conditions: source organism: West Nile virus
[3] = source organism: SARS coronavirus Tor2
[4] = source organism: Vaccinia virus WR
[5] = source organism: Mammarenavirus brazilense
[6] = source organism: Burkholderia pseudomallei
[7] = source organism: Mammarenavirus juninense
[8] = source organism: Pseudomonas aeruginosa
[9] = source organism: Human immunodeficiency virus 1
[10] = source organism: Cryptosporidium parvum
[11] = source organism: Mammarenavirus whitewaterense
[12] = source organism: Orthomarburgvirus marburgense

Row | Sequence | Kd (HLA-A*02:02; [4]) [nM] | Kd (HLA-A*02:06; [4]) [nM] | Kd (HLA-A*02:03; [4]) [nM] | also measured
1 | VMFNGVTFST | – | – | – | Kd (HLA-A*02:02; [3]): 0.69 nM; Kd (HLA-A*02:06; [3]): 131 nM; Kd (HLA-A*02:03; [3]): 75.2 nM
2 | ALVCYIVMPV | – | – | – | Kd (HLA-A*02:02; [3]): 1.2 nM; Kd (HLA-A*02:06; [3]): 2.92 nM; Kd (HLA-A*02:03; [3]): 4.4 nM
3 | LIVILFIMFM | 85.1 | 120 | 433 | –
4 | PPFGESNIV | – | – | – | Kd (HLA-B*51:01): 1790 nM
5 | HSLPRCWLV | – | – | – | Kd (HLA-A*02:02; [5]): 654 nM; Kd (HLA-A*02:06; [5]): 322 nM; Kd (HLA-A*02:03; [5]): 146 nM
6 | YLSKEDRIIT | 1300 | ≥ 49000 | 5570 | –
7 | LAEHISDSI | 45.2 | 19200 | 731 | –
8 | IASGQRCHFI | 526 | 256 | 8320 | –
9 | DAAVVFPPV | – | – | – | Kd (HLA-A*02:01 [1]; [6]): ≥ 20000 nM; Kd (HLA-A*69:01; [6]): 0.4 nM
10 | IMKQAASMK | – | – | – | Kd (HLA-A*03:01; source organism: Giardia lamblia ATCC 50803): 63.5 nM
11 | YVHSLLYSSM | 2200 | 2250 | 6710 | –
12 | NIKISLNEIL | 705 | 557 | 1390 | –
13 | IISTDQDTM | 4300 | 2360 | ≥ 33200 | –
14 | AIYVFCISL | – | – | – | Kd (HLA-A*02:02; [3]): 143 nM; Kd (HLA-A*02:06; [3]): 47.7 nM; Kd (HLA-A*02:03; [3]): 201 nM
15 | LLFLKDVEP | – | – | – | Kd (HLA-A*02:01 [2]): 13.4 nM
16 | LAYVVIGIL | – | – | – | Kd (HLA-B*51:01): 1320 nM
17 | FLTNKLLLFA | – | – | – | Kd (HLA-A*02:02; [3]): 0.417 nM; Kd (HLA-A*02:06; [3]): 7.47 nM; Kd (HLA-A*02:03; [3]): 1.41 nM
18 | LTKDRKMLEL | 7700 | ≥ 20800 | 133 | –
19 | LISSDGARVI | 7180 | ≥ 35000 | 1150 | –
20 | FIASAPQQL | 1.97 | 89.4 | 4.39 | –
21 | NTIDKSSPL | 82.3 | 18.6 | 27.1 | –
22 | LTSSSKYTY | – | – | – | Kd (HLA-A*01:01): 33 nM
23 | EVLMSPCRM | 6830 | 11800 | 651 | –

Row | Sequence | Kd (HLA-A*02:02; [4]) [nM] | Kd (HLA-A*02:06; [4]) [nM] | Kd (HLA-A*02:03; [4]) [nM] | also measured
24 | SALMTLDDL | 411 | 99.9 | 707 | –
25 | TSLGLLYTV | – | – | – | Kd (HLA-A*02:02; [7]): 933 nM; Kd (HLA-A*02:06; [7]): 4.17 nM; Kd (HLA-A*02:03; [7]): 405 nM
26 | LISILMIFI | 2370 | 7040 | ≥ 5000 | –
27 | ALVSDCAST | 701 | 311 | 31.1 | –
28 | LNIALVAVSL | – | – | – | Kd (HLA-A*02:02; [7]): 179 nM; Kd (HLA-A*02:06; [7]): 13100 nM; Kd (HLA-A*02:03; [7]): 12400 nM
29 | PLHIVCSKT | 997 | 3890 | 2150 | –
30 | DITNILGGV | 9880 | 7430 | 1640 | –
31 | YPAEITLTW | – | – | – | Kd (HLA-B*07:02; source organism: Homo sapiens): 0.147 µM; Kd (HLA-B*58:01; source organism: Homo sapiens): 55 nM
32 | TTELNIVDEI | ≥ 38700 | ≥ 21400 | ≥ 70400 | –
33 | ILGRYLPEF | – | – | – | Kd (HLA-A*02:01 [1]; [8]): 4130 nM; Kd (HLA-B*15:01): 150 nM; Kd (HLA-A*69:01; [8]): 18100 nM; Kd (HLA-B*58:01; [8]): 146 nM
34 | ATPQDLNTM | – | – | – | Kd (HLA-A*02:01 [1]; [9]): ≥ 28800 nM; Kd (HLA-B*07:02; [9]): 11.2 µM
35 | IAGGVCYYLL | 4580 | 656 | 14600 | –
36 | STKNILVTV | – | – | – | Kd (HLA-A*02:01 [1]; [10]): 416 nM; Kd (HLA-A*69:01; [10]): 60.7 nM
37 | KLLYAAEMV | 57.6 | 17.9 | 54.3 | –
38 | IMTSTRTIIL | 1020 | 438 | 52.5 | –
39 | KTVAGSFAS | – | – | – | Kd (HLA-A*02:02; [11]): 1590 nM; Kd (HLA-A*02:06; [11]): 9130 nM; Kd (HLA-A*02:03; [11]): 3810 nM
40 | TIDAINKCV | 90.1 | 406 | 634 | –
41 | IINSVSIILA | 719 | 957 | 890 | –
42 | GLYPQLSAI | – | – | – | Kd (HLA-A*02:01 [1]; [12]): 123 nM; Kd (HLA-A*69:01; [12]): 3860 nM
43 | PTSETMYLT | 10400 | ≥ 77100 | 3640 | –
44 | GVNKQTAMK | – | – | – | Kd (HLA-A*11:01): 20.3 nM; Kd (HLA-A*03:01; source organism: West Nile virus): 600 nM
45 | MVEYLENQL | 343 | 3960 | 6460 | –
46 | YIILFILFFA | 263 | 1050 | 674 | –
